Assay results taken from patent US20190328887A1.

Target: human oxytocin receptor (human) (UniProt P30559)
Chain of UniProt P30559 (P30559 whole entry): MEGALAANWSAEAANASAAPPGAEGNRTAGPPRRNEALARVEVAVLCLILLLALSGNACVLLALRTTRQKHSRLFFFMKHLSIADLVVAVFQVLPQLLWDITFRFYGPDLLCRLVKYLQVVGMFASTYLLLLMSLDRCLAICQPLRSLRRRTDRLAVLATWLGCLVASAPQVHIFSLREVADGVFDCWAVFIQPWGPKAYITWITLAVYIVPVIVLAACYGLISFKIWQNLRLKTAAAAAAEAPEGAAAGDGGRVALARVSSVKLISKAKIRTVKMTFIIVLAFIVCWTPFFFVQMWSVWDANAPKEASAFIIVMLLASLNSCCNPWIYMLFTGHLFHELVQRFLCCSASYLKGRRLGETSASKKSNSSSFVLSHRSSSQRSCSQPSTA

EC50 Ca2+ production: 42 nM
Substance: Oxytocin (peptide)
